Test results from the supplement of paper PMC9170038.

Test system: MS2 coat protein
Assay: apparent KD of MS2 coat protein; designed switch direction (-1 OFF switch, 1 ON switch): -1; higher = weaker reporter binding
Procedure, shortened: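 Stalled E. coli RNA polymerase transcribed designed RNA switches on Illumina chips, which were then titrated with SNAP-549-labelled MS2 coat protein, doubling from 0.7 or 1.5 nM to 3 µM. Steps lasted from 0.8–1.5 h at the lowest concentration to 10–20 min at the highest. The apparent KD is each design's median over clusters of curve-fitted normalised fluorescence.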

[1] = Eterna round: R95, input ligand: microRNA oligo, concentration not stated
[2] = input ligand: microRNA oligo, concentration not stated
[3] = Eterna round: R95, input ligand: FMN 200 uM
[4] = Eterna round: R95, input ligand: none

Row | Sequence | apparent KD of MS2 coat protein [1] [µM] | apparent KD of MS2 coat protein (input ligand: FMN 200 uM) [µM] | apparent KD of MS2 coat protein (input ligand: none) [µM] | also measured
1 | UCCAACCCUGUGAGGAUAUCGUCCAUUUUUUGUUACGAGAAGGCACAUGAGGAUCACCCAUGUUUUUUAUUUUU [JR_BMOE4_Sub079] (puzzle: Brourd's mod of Exclusion 4) | 0.0238 | – | – | –
2 | CCAUAGGGAGGAUAUCCAAUAUAUGACAUGAGGAUCACCCAUGUUUCCACUCGUACCUCCGGAGAAGGCCCAUACC [Ex5 #9] (Eterna round: R97, puzzle: Exclusion 5) | – | 0.022 | 0.027 | –
3 | UCGCUCCGUGUAGGAUAUCGUUGUACUCUGCGGCGAGAAGGACAUGAGGAUCACCCAUGUAUGUUAUUAUCACGCGUGGCGCAA [Design 68] (Eterna round: R96, puzzle: Exclusion NG 1) | – | 0.0215 | 0.019 | apparent KD of MS2 coat protein [2]: 0.017 µM
4 | UGAUCACAUGAGGAUCACCCAUGUCAGGAUAUCUACAUUGAAGCUGCGGCUUCAAUGUAGAGAAGGGACAUAAU [E1/3-B3] (Eterna round: R97, puzzle: Exclusion 1) | – | 0.117 | 0.355 | –
5 | CUGAGGUAGCGGUCCUAUUACAUGAGGAUCACCCAUGUACCUUGCUUCGAGCUUUUAGCUCGUCUUAUGAUUCUCGG [Mat - Sensor v3 - turn-off var 1 - JL Mod - D38] (puzzle: Sensor v3, turn-off variant 1) | 0.447 | – | – | apparent KD of MS2 coat protein [3]: 0.277 µM; apparent KD of MS2 coat protein [4]: 0.381 µM
6 | ACGCAUUGCCUUUGGUAGUGCGUAACAUGAGGAUCACCCAUGUAGGAUAUGGUAGGCUUUGCUUACCAGAAGGACAUAAUAAAU [Mat - Exclusion NG 3 - Mod of JL - D2] (Eterna round: R96, puzzle: Exclusion NG 3) | – | 0.0527 | 0.0288 | apparent KD of MS2 coat protein [2]: 0.0251 µM
7 | AGUAACAGAGGAUAUACUAUUUUAUGUAUUUAUUAUUUUAAACAUGAGGAUCACCCAUGUAGAAGGCUGAAUGA [JMF 97] (puzzle: Exclusion 2) | 0.0211 | – | – | –
8 | GGGAUGUGAGGAUAUCGAGGUGGAAAGCACCUAACAGAAAACGAGAAGGCACAUGAGGAUCACCCAUGUAAUAC [Ditete] (puzzle: Exclusion 4) | 0.0195 | – | – | apparent KD of MS2 coat protein [3]: 0.0546 µM; apparent KD of MS2 coat protein [4]: 0.0198 µM
9 | GCGCACUAAGUGAGGAUAUCGUUUAUUUUUAGGAUCGAGAAGGCACAUGAGGAUCACCCAUGUUUGACGUGCGC [JR_BMOE4_Sub099] (puzzle: Brourd's mod of Exclusion 4) | 0.0179 | – | – | –
10 | UUAAUUAAUAAUUAAGAUCAUUACAUGAGGAUCACCCAUGUCGAGGAUAUCAGCUCGAUUAGAGCUGAGAAGGCGACAAAUUAU [ExNG3/13-B1] (Eterna round: R96, puzzle: Exclusion NG 3) | – | 1.06 | 0.579 | apparent KD of MS2 coat protein [2]: 0.644 µM
11 | AUGGACGCAGGAUAUACAUGAGGAUCACCCAUGUGAGGUAGGUAAGUAGGAAGUGAAGGUAGAAGGGCGAGAGA [JR_Exclu3_Sub096] (puzzle: Exclusion 3) | 0.0594 | – | – | –
12 | GUAGGGUCAGGAUAUACUGGCUGAGGGAUGUAUUGUAGUUGGUAGAAGGGACAUGAGGAUCACCCAUGUAAGUA [JR_Exclu4_Sub057] (puzzle: Exclusion 4) | 0.0332 | – | – | –
13 | AAAUACAAGCAAAGAUCUUACAUGAGGAUCACCCAUGUGCUCGUCUUAUAAAGUACUAUCACGAAAGUGAUAGUACA [Sensor 3, v1 - 29] (puzzle: Sensor v3, turn-off variant 1) | 0.108 | – | – | apparent KD of MS2 coat protein [3]: 0.0195 µM; apparent KD of MS2 coat protein [4]: 0.0191 µM
14 | GGUACUAACACGAUAGUGUUAGUACUAUAAGCUUGUGUUACAUGAGGAUCACCCAUGUCCUCAUAAGCUCGUCUUAU [Mat - Sensor v3 - Turn-off var 2 - D77] (puzzle: Sensor v3, turn-off variant 2) | 0.0502 | – | – | apparent KD of MS2 coat protein [3]: 0.0959 µM; apparent KD of MS2 coat protein [4]: 0.0986 µM
15 | UUUAAUUUUUUUUUUUUACAAGCUUUUUGCUCGUCUUAUACAUGAGGAUCACCCAUGUGGGUAAGGGAUAAAUUAUC [JMF 37] (puzzle: Sensor v3, turn-off variant 2) | 0.0334 | – | – | apparent KD of MS2 coat protein [3]: 0.0285 µM; apparent KD of MS2 coat protein [4]: 0.0353 µM
16 | ACAAGCUCUGUGGGUGGUGACAUGAGGAUCACCCAUGUUUUGCUCGUCUUGUGCCGGGCCCGGCGCCCGGGCCCGGC [-40.5, -69.4, A 8%] (Eterna round: R97, puzzle: Sensor, turn-off variant 1) | – | 0.261 | 0.715 | –
17 | CAGGACAGAGGAUAUACAUAGAUACAGAUUCAUGUAGAACUACAUGAGGAUCACCCAUGUAGAAGGCUGACCUG [Fiskers Ex 2 - 4] (puzzle: Exclusion 2) | 0.0278 | – | – | –
18 | CACGUGUCAGGAUAUAGGACAGAUAUAGUCACAAUCUCUGCCUAGAAGGGACAUGAGGAUCACCCAUGUCUAUA [EX4 C.17] (Eterna round: R97, puzzle: Exclusion 4) | – | 0.0276 | 0.0205 | –
19 | CCUCCACAUGAGGAUCACCCAUGUCAGGAUAUCGUGCGCGCGUUUUCGGUCUUUCGCGCGAGAAGGGACGACUG (puzzle: Exclusion 1) | 0.0241 | – | – | –
20 | AAGAAACAUGAGGAUCACCCAUGUGAGGAUAUGUAAAAGAAAAGAAAAUAAAGAAGAAACAGAAGGCACAAAGG [Mat - Mod of Hog D21] (Eterna round: R96, puzzle: Exclusion 1) | – | – | – | apparent KD of MS2 coat protein [2]: 0.0309 µM
21 | AGUUGGCGAGGAUAUACAUGAGGAUCACCCAUGUGAGAGAUACUAGUGAGGUCGAUUGGUAGAAGGCGCUGACA [Mat X3R4 m19] (Eterna round: R97, puzzle: Exclusion 3) | – | 0.0708 | 0.105 | –
22 | AGCCUACAUGAGGAUCACCCAUGUCAGGAUAUCUCGCGACGUGUCGGGUUCACGUUGCAGAGAAGGGACUCGGG [Estibera] (puzzle: Exclusion 1) | 0.0464 | – | – | –
23 | ACAAGCUUUUAGAUUUUCAACAUGAGGAUCACCCAUGUUCGUCUUAGGCGAGUGCGAGUGCGGUGUACUCGUAUUAG [JL TOV1 3.85 sellena mod] (Eterna round: R97, puzzle: Sensor, turn-off variant 1) | – | 0.0222 | 0.0219 | –
24 | UACAUGAGGAUCACCCAUGUUUUAUCAUGUGUAAUAAUAAUGUAGGAUAUGUAUUAUUUUAUUUAACAGAAGGACAAUAAUAAA [JMF's solution 2] (Eterna round: R96, puzzle: Exclusion NG 3) | – | 0.426 | 0.524 | apparent KD of MS2 coat protein [2]: 0.467 µM
25 | GUCGUGAGACAGGAUAUCCAAUCUAAACACGAGGGAGAAGGGUCUACAUGAGGAUCACCCAUGUGGUCUCAAAA [Aonondiin] (puzzle: Exclusion 6) | 0.0172 | – | – | –
26 | GAUUAUGCGAGCUUUAGGGACAUGAGGAUCACCCAUGUUCGUCUUAUUAGUCUAAGUGCACUGACAUACCUAAAUCU [JMF 83] (puzzle: Sensor v3, turn-off variant 1) | 0.0232 | – | – | apparent KD of MS2 coat protein [3]: 0.0158 µM; apparent KD of MS2 coat protein [4]: 0.0166 µM
27 | UUCUUUAUACGAGGAUAUCAUACAUGAGGAUCACCCAUGUGGCUGGGUCUGUUUUUAUAUAUUAUUGAGAAGGCGUUUUUCUUU [JR_ExcNG2_Sub074] (Eterna round: R96, puzzle: Exclusion NG 2) | – | 0.197 | 0.0867 | apparent KD of MS2 coat protein [2]: 0.0505 µM
